In the nanobody polyreactivity screen of Harvey et al. (2022):

assay: yeast display, Sf9 membrane polyspecificity reagent, FACS + sequencing; frameworks hold sequencing errors
In short: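 Nanobodies came from a synthetic yeast display library in Saccharomyces cerevisiae BJ5465, induced with galactose for 36–48 hours and stained for 1 hour at 4 °C with 10% biotinylated, detergent-solubilized Sf9 membrane reagent. Cells were enriched on streptavidin microbeads and then FACS-sorted, with low and high (top ~1%) gates set on anti-HA fluorescence for expression and streptavidin fluorescence for reagent binding. Each polyreactivity label reflects the gate a clone came from. Genes were amplified by colony PCR, sequenced by MiSeq 2 × 250 and filtered by CDR length.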

Row | Sequence | polyreactivity (PSR sort gate)
1 | QVQLVESGGGLVQAGGSLRSSCAATGRTFYYNGMGWYRQAPGKERELVATITNGGSTNYADSVKGRFTISRDNAKNTVYLQMNSLKPEDTAVSYCAKTLASDCYDYWGQGTQVTVSS | low polyreactivity
2 | QVQLVESGGGLVQAGGSLRVICAASGIIFPIYAMGWYRQAPGKEWELVAGISTGGGGTYYADSVKGRFTISRDNAKNTVYLQKNSLKPEDTAVYYCNVDAAGSNSHARHDSWGQGTQVTVSS | low polyreactivity
3 | QVQLVESGGGLVQAGGSLRVICAASGLIFYGYMGWSRQAPGKERELVAAISYTGGSTYYADSVKGRFTISRDNAKNTVYVQMNSLKPEDTAVYYCARDWRTKWFGYWGQGTQVTVSS | low polyreactivity
4 | QVQLVESGGGLVQAGGSLRVICAPSGSTFGVYAMGWYRQAPGKERDLVAAISDTGGSTYYADSVKGRFTISRDNAKTTVYLQMNSLKPEDTAVYYCAVEVGYTDSPYSYDYWGHGTQVTVSS | low polyreactivity
5 | QVQLVESGGGLVQAGGSLRVSCAASGFIFLAYAMGWYSQAPGKERELFAAIDTSGGSTYYADSVKGRFTSTRDNAKNTVYLQMNSLKPEDSAVYYCAADDYDQYYFDYDYWGQGTQVTVSS | low polyreactivity
6 | QVQLVESGGGLVQAGGSLRVSCAASGFIFRRYAMGWYRQAPGKERELVAAIRTNSGSTYYADSVKGRFTISRDNAKNTVYLQMNSLKPEDTAVYYCATGQVYRTVSWLYNYWGQGTQVTVSS | high polyreactivity
7 | QVQLVESGGGLVQAGGSLRVSCAASGGTFTAYAMGGYIQAPGNERQLVAAISASGDSTYYADSVKGRFTISRDNPKHTVYLQMNSLKPDDTAVYYCAADWAYKYELDYWGQGTQVTVSS | low polyreactivity
8 | QVQLVESGGGLVQAGGSLRVSCAASGLIFNTYAMGWYRQAPGKERELVAAITVGGGTNYADSVKGLFRISRDNAKNTVYLQMNSLNPADTAVYYCAARLASWPLTYDFQWYEYWGQGTQVTVSS | low polyreactivity
9 | QVQLVESGGGLVQAGGSLRVSCAASGLTFKINAMGWYRQEPGKERELVAAITWNGGRTYYADSVKGRFTISRDNAKNTVYLQMNSLKPEDTAVYYCAADGKYYHRRPGWPIYDYWGQGTQVTVSS | high polyreactivity
10 | QVQLVESGGGLVQAGGSLRVSCAASGLTLPPYAMGWDRQAPGKERELVAAITSGGSTNYADSVKGRFTISRDKAKNTVYLQLNSLKPEDTAVYYCAAVGRHYYVKFDFWGQGTHVTVSS | low polyreactivity
11 | QVQLVESGGGLVQAGGSLRVSCAASGNTFGGYAMGWYRQAPGKERELVAAISSSGGSTYYADSVKGRFTISRDNAKNTVYLQMNSLKPEDTAVYYCAAYGGVYGYWTMGYWGQGTQVTVSS | high polyreactivity
12 | QVQLVESGGGLVQAGGSLRVSCAASGNTFGYFAMGWYRQAPGKERELVAAMSGSGGRTYYAASVKGRFTISRDNAKNTVDLQMNILKPEATAVYYCNAVYYHVVDFDYWGQGTQVTVSS | high polyreactivity
13 | QVQLVESGGGLVQAGGSLRVSCAASGRTFGGYAMGWYRQAPGKERELVAAISDRGTSTYYADSVKGRFTISRDNAKNTVYLQMNSLKPEDTAVYYCAARINYWGYYYWGQGTQVTVSS | high polyreactivity
14 | QVQLVESGGGLVQAGGSLRVSCAASGRTIRWNAMGWSRQAPGKEREMVAAITSRGGSTYYADSVKGRFTISRDNAKNTVYLQMNSLKPEDTAVYYCAKQPKPPPVTGYDYWGQGTQVTVSS | high polyreactivity
15 | QVQLVESGGGLVQAGGSLRVSCAASGSIFRFHVMGWYRQAPGKERELVAAITRGDSTNYADSVKGRFTIPRDNAKNTVYLHMNSLKPEATAVYYCATKTPGWGIFDYWGPGTQVTVSS | low polyreactivity
16 | QVQLVESGGGLVQAGGSLRVSCAASGSTCSQYVMGWYRQAPGKERELVAAISGGYRTYYADSVKGRFTISRDNAKNTVYLQMNSLKPEDTAVYYCAAEVLKTRWSYDYWGQGTQVTVSS | high polyreactivity
